{"source": "patent US20070224180", "key": {"[1]": {"biological_target": "T1, big endothelin (Big ET-1), P05305", "T1 chain": "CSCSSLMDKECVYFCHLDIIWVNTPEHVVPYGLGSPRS"}, "[2]": {"biological_target": "T2, endothelin (ET-1), P05305", "T2 chain": "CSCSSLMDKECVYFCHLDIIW"}, "PACAP(1-27)": {"biological_target": "T3, PACAP(1-27)", "T3 chain": "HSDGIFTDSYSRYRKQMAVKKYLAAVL"}, "substance P, P20366": {"biological_target": "T4, substance P, P20366", "T4 chain": "RPKPQQFFGLM"}, "[3]": {"biological_target": "T5, atrial natriuretic peptide (ANP), P01160", "T5 chain": "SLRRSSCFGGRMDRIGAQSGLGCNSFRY"}, "[4]": {"biological_target": "T6, Fluorescence-quenched Big-ET-1 analogue (17 aa Big-ET)", "T6 chain": "DIAWFXTPEHVVPYGLG"}}, "note": "Marks after values point to notes of the source that are not given here."}
{"protein": "His6-tagged IGS5 ectodomain (recombinant soluble His-tagged human IGS5) (protein) GSHHHHHHSEVCTTPGCVIAAARILQNMDPTTEPCDDFYQFACGGWLRRHVIPETNSRYSIFDVLRDELEVILKAVLENSTAKDRPAVEKARTLYRSCMNQSVIEKRGSQPLLDILEVVGGWPVAMDRWNETVGLEWELERQLALMNSQFNRRVLIDLFIWNDDQNSSRHIIYIDQPTLGMPSREYYFNGGSNRKVREAYLQFMVSVATLLREDANLPRDSCLVQEDMMQVLELETQLAKATVPQEERHDVIALYHRMGLEELQSQFGLKGFNWTLFIQTVLSSVKIKLLPDEEVVVYGIPYLQNLENIIDTYSARTIQNYLVWRLVLDRIGSLSQRFKDTRVNYRKALFGTMVEEVRWRECVGYVNSNMENAVGSLYVREAFPGDSKSMVRELIDKVRTVFVETLDELGWMDEESKKKAQEKAMSIREQIGHPDYILEEMNRRLDEEYSNLNFSEDLYFENSLQNLKVGAQRSLRKLREKVDPNLWIIGAAVVNAFYSPNRNQIVFPAGILQPPFFSKEQPQALNFGGIGMVIGHEITHGFDDNGRNFDKNGNMMDWWSNFSTQHFREQSECMIYQYGNYSWDLADEQNVNGFNTLGENIADNGGVRQAYKAYLKWMAEGGKDQQLPGLDLTHEQLFFINYAQVWCGSYRPEFAIQSIKTDVHSPLKYRVLGSLQNLAAFADTFHCARGTPMHPKERCRVW", "values": [{"measurement": "% Hydrolysis", "setting": "[1]", "result": "(?)****"}, {"measurement": "% Hydrolysis (100 ng IGS5 polypeptide; 0.5 µM substrate; 2 h, 37° C.)", "setting": "angiotensin-1, P01019", "result": 15, "unit": "%"}, {"measurement": "% Hydrolysis (100 ng IGS5 polypeptide; 0.5 µM substrate; 2 h, 37° C.)", "setting": "[2]", "result": "< 30", "unit": "%"}, {"measurement": "% Hydrolysis", "setting": "PACAP(1-27)", "result": 69, "unit": "%"}, {"measurement": "% Hydrolysis (100 ng IGS5 polypeptide; 0.5 µM substrate; 2 h, 37° C.)", "setting": "substance P, P20366", "result": 100, "unit": "%"}, {"measurement": "% Hydrolysis (100 ng IGS5 polypeptide; 0.5 µM substrate; 2 h, 37° C.)", "setting": "[3]", "result": 5, "unit": "%"}, {"measurement": "% Hydrolysis (*500 ng IGS5 polypeptide)", "setting": "[3]", "result": 80, "unit": "%"}, {"measurement": "% Hydrolysis", "setting": "[4]", "result": 41, "unit": "%"}, {"measurement": "% Hydrolysis (100 ng IGS5 polypeptide; 0.5 µM substrate; 2 h, 37° C.)", "setting": "bradykinin, P01042", "result": 100, "unit": "%"}, {"measurement": "% Hydrolysis (**10 ng IGS5 polypeptide)", "setting": "bradykinin, P01042", "result": 62, "unit": "%"}]}
{"protein": "NEP (recombinantly produced and purified neutral endopeptidase, neprilysin) (protein) YDDGICKSSDCIKSAARLIQNMDATTEPCTDFFKYACGGWLKRNVIPETSSRYGNFDILRDELEVVLKDVLQEPKTEDIVAVQKAKALYRSCINESAIDSRGGEPLLKLLPDIYGWPVATENWEQKYGASWTAEKAIAQLNSKYGKKVLINLFVGTDDKNSVNHVIHIDQPRLGLPSRDYYECTGIYKEACTAYVDFMISVARLIRQEERLPIDENQLALEMNKVMELEKEIANATAKPEDRNDPMLLYNKMTLAQIQNNFSLEINGKPFSWLNFTNEIMSTVNISITNEEDVVVYAPEYLTKLKPILTKYSARDLQNLMSWRFIMDLVSSLSRTYKESRNAFRKALYGTTSETATWRRCANYVNGNMENAVGRLYVEAAFAGESKHVVEDLIAQIREVFIQTLDDLTWMDAETKKRAEEKALAIKERIGYPDDIVSNDNKLNNEYLELNYKEDEYFENIIQNLKFSQSKQLKKLREKVDKDEWISGAAVVNAFYSSGRNQIVFPAGILQPPFFSAQQSNSLNYGGIGMVIGHEITHGFDDNGRNFNKDGDLVDWWTQQSASNFKEQSQCMVYQYGNFSWDLAGGQHLNGINTLGENIADNGGLGQAYRAYQNYIKKNGEEKLLPGLDLNHKQLFFLNFAQVWCGTYRPEYAVNSIKTDVHSPGNFRIIGTLQNSAEFSEAFHCRKNSYMNPEKKCRVW", "values": [{"measurement": "cleavage of PACAP(1-27), HPLC", "setting": "PACAP(1-27)", "result": "None of the aforementioned enzymes was able to cleave PACAP(1-27) under the assay conditions as described above for IGS5"}]}
{"protein": "XCE/DINE (recombinantly produced) (protein) KYLGPVAAGGGACPEGCPERKAFARAARFLAANLDASIDPCQDFYSFACGGWLRRHAIPDDKLTYGTIAAIGEQNEERLRRLLARPGGGPGGAAQRKVRAFFRSCLDMREIERLGPRPMLEVIEDCGGWDLGGAEERPGVAARWDLNRLLYKAQGVYSAAALFSLTVSLDDRNSSRYVIRIDQDGLTLPERTLYLAQDEDSEKILAAYRVFMERVLSLLGADAVEQKAQEILQVEQQLANITVSEHDDLRRDVSSMYNKVTLGQLQKITPHLRWKWLLDQIFQEDFSEEEEVVLLATDYMQQVSQLIRSTPHRVLHNYLVWRVVVVLSEHLSPPFREALHELAQEMEGSDKPQELARVCLGQANRHFGMALGALFVHEHFSAASKAKVQQLVEDIKYILGQRLEELDWMDAETRAAARAKLQYMMVMVGYPDFLLKPDAVDKEYEFEVHEKTYFKNILNSIRFSIQLSVKKIRQEVDKSTWLLPPQALNAYYLPNKNQMVFPAGILQPTLYDPDFPQSLNYGGIGTIIGHELTHGYDDWGGQYDRSGNLLHWWTEASYSRFLRKAECIVRLYDNFTVYNQRVNGKHTLGENIADMGGLKLAYHAYQKWVREHGPEHPLPRLKYTHDQLFFIAFAQNWCIKRRSQSIYLQVLTDKHAPEHYRVLGSVSQFEEFGRAFHCPKDSPMNPAHKCSVW", "values": [{"measurement": "cleavage of PACAP(1-27), HPLC", "setting": "PACAP(1-27)", "result": "None of the aforementioned enzymes was able to cleave PACAP(1-27) under the assay conditions as described above for IGS5"}]}
{"protein": "ECE-1 (recombinantly produced endothelin converting enzyme-1) (protein) QYQTRSPSVCLSEACVSVTSSILSSMDPTVDPCHDFFSYACGGWIKANPVPDGHSRWGTFSNLWEHNQAIIKHLLENSTASVSEAERKAQVYYRACMNETRIEELRAKPLMELIERLGGWNITGPWAKDNFQDTLQVVTAHYRTSPFFSVYVSADSKNSNSNVIQVDQSGLGLPSRDYYLNKTENEKVLTGYLNYMVQLGKLLGGGDEEAIRPQMQQILDFETALANITIPQEKRRDEELIYHKVTAAELQTLAPAINWLPFLNTIFYPVEINESEPIVVYDKEYLEQISTLINTTDRCLLNNYMIWNLVRKTSSFLDQRFQDADEKFMEVMYGTKKTCLPRWKFCVSDTENNLGFALGPMFVKATFAEDSKSIATEIILEIKKAFEESLSTLKWMDEETRKSAKEKADAIYNMIGYPNFIMDPKELDKVFNDYTAVPDLYFENAMRFFNFSWRVTADQLRKAPNRDQWSMTPPMVNAYYSPTKNEIVFPAGILQAPFYTRSSPKALNFGGIGVVVGHELTHAFDDQGREYDKDGNLRPWWKNSSVEAFKRQTECMVEQYSNYSVNGEPVNGRHTLGENIADNGGLKAAYRAYQNWVKKNGAEHSLPTLGLTNNQLFFLGFAQVWCSVRTPESSHEGLITDPHSPSRFRVIGSLSNSKEFSEHFRCPPGSPMNPPHKCEVW", "values": [{"measurement": "cleavage of PACAP(1-27), HPLC", "setting": "PACAP(1-27)", "result": "None of the aforementioned enzymes was able to cleave PACAP(1-27) under the assay conditions as described above for IGS5"}]}
